The record followed here is patent publication US20210115146A1.

The target in experiment [1] is Macaca fascicularis EGFR (cell surface) (Macaca fascicularis). The experiment can be described thus: FACS binding to W562.CHOK1.cPro1.H6 cells (monkey EGFR), upper panel and table; the curve is flat at the baseline, so this is the fit of a flat curve (see non_binding).
Experiment [2] concerns the target human EGFR (cell surface) (human) (UniProt P00533). Put plainly: FACS binding to A431 cells, upper panel and table; EC50 cell reads N/A, curve flat. (A flow cytometer gives signals particle by particle.)
For experiment [3] the target is unchanged. Put plainly: FACS competition on A431 cells, blocked ligand EGF-biotin, MFI is the EGF-biotin signal; lower panel and table; IC50 cell reads N/A, no inhibition.
For experiment [4], the target named is Macaca fascicularis EGFR (cell surface) (Macaca fascicularis). Put plainly: FACS binding to W562-CHO-K1.cPro1.H6 cells (monkey EGFR), lower panel and table; EC50 cell reads N/A, curve flat.
For experiment [5], the target named is human EGFR (cell surface) (human) (UniProt P00533). Put plainly: FACS binding to A431 cells, lower panel and table; the curve is flat at the baseline, so this is the fit of a flat curve (see non_binding).
For experiment [6] the target is unchanged. The experiment can be described thus: FACS binding to A431 cells, lower panel and table; curve flat.
Experiment [7] concerns the target Macaca fascicularis EGFR (cell surface) (Macaca fascicularis). The experiment can be described thus: FACS binding to W562.CHOK1.cPro1.H6 cells (monkey EGFR), upper panel and table; curve flat.
For experiment [8], the target named is mouse EGFR (cell surface) (mouse) (UniProt Q01279). The experiment can be described thus: FACS binding to W562-CHO-K1.mPro1.F3 cells (mouse EGFR), lower panel and table; EC50 cell reads N/A, curve flat.
For experiment [9] the target is unchanged. Put plainly: FACS binding to mouse EGFR cells; the table head prints W562.CHOK1.cPro1.H6; EC50 cell reads N/A, curve flat.
Experiment [10] deals with human EGFR (cell surface) (human) (UniProt P00533). The experiment can be described thus: FACS competition on A431 cells, blocked ligand EGF-biotin, MFI is the EGF-biotin signal; upper panel and table; IC50 cell reads N/A, no inhibition.

As to Isotype (antibody), the EC50 turned out to be 0.07 nM in experiment [1] and 0.01 nM in experiment [5]. In addition, the Top MFI in experiment [2] worked out at 35.1 MFI; in [7] it was 35.6 MFI; in experiment [9], 32.3 MFI. The Bottom MFI worked out at 3890 MFI in experiment [3] and 4680 MFI in experiment [10]. The TOP MFI turned out to be 54.9 MFI in experiment [4], 58.5 MFI in experiment [6] and 85.6 MFI in experiment [8].

What is called EC50 is the concentration giving half of the maximal effect.
